# Data: the PETadex activity labels (doi:10.1002/anie.202203061)
# B1: unnamed (protein)
# chain: MNFPRASRLMQAAVLGGLMAVSAAATAQTNPYARGPNPTAASLEASAGPFTVRSFTVSRPSGYGAGTVYYPTNAGGTVGAIAIVPGYTARQSSIKWWGPRLASHGFVVITIDTNSTLDQPSSRSSQQMAALRQVASLNGTSSSPIYGKVDTARMGVMGWSMGGGGSLISAANNPSLKAAAPQAPWDSSTNFSSVTVPTLIFACENDSIAPVNSSALPIYDSMSRNAKQFLEINGGSHSCANSGNSNQALIGKKGVAWMKRFMDNDTRYSTFACENPNSTRVSDFRTANCS
# B2: unnamed (protein)
# chain: MNKSILEKIAVGTSALLFSVSAFSFTPSPTPDPDPEPQPCQGECDFTRGPAPSSSYLEASSGPYSVNTVNVSRSVSGFGGGTIHYPTNTTGTMGAIAIVPGFLAGESSIAWWGPRLASHGFVVITIATNSTFDQPASRETQLGRALDYVISQSNSNSSDISGMVDSTRVGAMGWSMGGGGALRIASGSRLSAAIPLAPWHTGSNDFDEIDTPTMIIACENDSTAPVRSHASPFYNSIPSTTDKALLEINNGSHSCANGGGSNGGLLGKYGVSWMKRFIDEDTRYSQFLCGPNHASNSAISEYRETCDY
# Columns and labels:
# [1] = Melting temperature [DSF / Thermofluor]; details: pH 7.5; part of the chain shown
# PET [2] = experiment: Proxy for plastic degradation [Released monomer concentration (HPLC/LC-MS) (TPA)]
# PET [3] = experiment: Proxy for plastic degradation [Released monomer concentration (HPLC/LC-MS) (MHET)]
protein,measurement,setting,value
B1,Melting temperature,[1],42 °C
same,Proxy for plastic degradation,"PET [2]; 30 °C, part of the chain shown",30 µM
same,Proxy for plastic degradation,"PET [2]; 37 °C, part of the chain shown",25 µM
same,Proxy for plastic degradation,"PET [2]; 45 °C, part of the chain shown",20 µM
same,Proxy for plastic degradation,"PET [2]; 55 °C, part of the chain shown",20 µM
same,Proxy for plastic degradation,"PET [2]; 65 °C, part of the chain shown",10 µM
same,Proxy for plastic degradation,"PET [3]; 30 °C, part of the chain shown",3 µM
same,Proxy for plastic degradation,"PET [3]; 37 °C, part of the chain shown",2 µM
same,Proxy for plastic degradation,"PET [3]; 45 °C, part of the chain shown",2 µM
same,Proxy for plastic degradation,"PET [3]; 55 °C, part of the chain shown",1 µM
same,Proxy for plastic degradation,"PET [3]; 65 °C, part of the chain shown",1 µM
B2,Proxy for plastic degradation,PET [2]; 30 °C,20 µM
same,Proxy for plastic degradation,PET [2]; 37 °C,20 µM
same,Proxy for plastic degradation,PET [2]; 45 °C,20 µM
same,Proxy for plastic degradation,PET [2]; 55 °C,20 µM
same,Proxy for plastic degradation,PET [2]; 65 °C,20 µM
same,Proxy for plastic degradation,PET [3]; 30 °C,3 µM
same,Proxy for plastic degradation,PET [3]; 37 °C,2 µM
same,Proxy for plastic degradation,PET [3]; 45 °C,2 µM
same,Proxy for plastic degradation,PET [3]; 55 °C,1 µM
same,Proxy for plastic degradation,PET [3]; 65 °C,1 µM
